B1: MOD-9016 (ctp-IFNβ-ctp) (ligand)
chain: SSSSKAPPPSLPSPSRLPGPSDTPILPQMSYNLLGFLQRSSNFQCQKLLWQLNGRLEYCLKDRMNFDIPEEIKQLQQFQKEDAALTIYEMLQNIFAIFRQDSSSTGWNETIVENLLANVYHQINHLKTVLEEKLEKEDFTRGKLMSSLHLKRYYGRILHYLKAKEYSHCAWTIVRVEILRNFYFINRLTGYLRNSSSSKAPPPSLPSPSRLPGPSDTPILPQ
B2: Intl. Standard (IFN-β reference standard calibrated in International Units, National Institute of Allergy and Infectious Diseases (NIH)) (ligand)
chain: MSYNLLGFLQRSSNFQCQKLLWQLNGRLEYCLKDRMNFDIPEEIKQLQQFQKEDAALTIYEMLQNIFAIFRQDSSSTGWNETIVENLLANVYHQINHLKTVLEEKLEKEDFTRGKLMSSLHLKRYYGRILHYLKAKEYSHCAWTIVRVEILRNFYFINRLTGYLRN
B3: Human Interferon-β 1a-MOD-9010 (ligand)
chain: B2 chain
B4: MOD-9011 (IFNβ-ctp) (ligand)
chain: MSYNLLGFLQRSSNFQCQKLLWQLNGRLEYCLKDRMNFDIPEEIKQLQQFQKEDAALTIYEMLQNIFAIFRQDSSSTGWNETIVENLLANVYHQINHLKTVLEEKLEKEDFTRGKLMSSLHLKRYYGRILHYLKAKEYSHCAWTIVRVEILRNFYFINRLTGYLRNSSSSKAPPPSLPSPSRLPGPSDTPILPQ
B5: MOD-9012 (IFNβ-ctpx2) (ligand)
chain: MSYNLLGFLQRSSNFQCQKLLWQLNGRLEYCLKDRMNFDIPEEIKQLQQFQKEDAALTIYEMLQNIFAIFRQDSSSTGWNETIVENLLANVYHQINHLKTVLEEKLEKEDFTRGKLMSSLHLKRYYGRILHYLKAKEYSHCAWTIVRVEILRNFYFINRLTGYLRNSSSSKAPPPSLPSPSRLPGPSDTPILPQSSSSKAPPPSLPSPSRLPGPSDTPILPQ

These binders were tested against T1, human IFN receptor (human, UniProt P17181) (assay: cell-based or functional assay).
T1 sequence 1: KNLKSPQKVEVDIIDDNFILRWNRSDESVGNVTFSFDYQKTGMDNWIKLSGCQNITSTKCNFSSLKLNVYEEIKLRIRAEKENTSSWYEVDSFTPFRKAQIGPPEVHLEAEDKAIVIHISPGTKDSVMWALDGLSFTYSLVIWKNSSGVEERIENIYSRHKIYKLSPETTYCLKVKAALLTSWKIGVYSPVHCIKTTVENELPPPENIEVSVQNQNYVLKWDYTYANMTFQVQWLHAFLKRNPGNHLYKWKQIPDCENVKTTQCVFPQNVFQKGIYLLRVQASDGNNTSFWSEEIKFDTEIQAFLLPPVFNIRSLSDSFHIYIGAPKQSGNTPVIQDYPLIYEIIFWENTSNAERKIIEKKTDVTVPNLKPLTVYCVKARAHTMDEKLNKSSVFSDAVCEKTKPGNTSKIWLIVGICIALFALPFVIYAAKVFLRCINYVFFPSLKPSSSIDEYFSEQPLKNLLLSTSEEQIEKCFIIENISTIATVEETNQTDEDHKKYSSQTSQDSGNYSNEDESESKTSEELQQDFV
T1 sequence 2: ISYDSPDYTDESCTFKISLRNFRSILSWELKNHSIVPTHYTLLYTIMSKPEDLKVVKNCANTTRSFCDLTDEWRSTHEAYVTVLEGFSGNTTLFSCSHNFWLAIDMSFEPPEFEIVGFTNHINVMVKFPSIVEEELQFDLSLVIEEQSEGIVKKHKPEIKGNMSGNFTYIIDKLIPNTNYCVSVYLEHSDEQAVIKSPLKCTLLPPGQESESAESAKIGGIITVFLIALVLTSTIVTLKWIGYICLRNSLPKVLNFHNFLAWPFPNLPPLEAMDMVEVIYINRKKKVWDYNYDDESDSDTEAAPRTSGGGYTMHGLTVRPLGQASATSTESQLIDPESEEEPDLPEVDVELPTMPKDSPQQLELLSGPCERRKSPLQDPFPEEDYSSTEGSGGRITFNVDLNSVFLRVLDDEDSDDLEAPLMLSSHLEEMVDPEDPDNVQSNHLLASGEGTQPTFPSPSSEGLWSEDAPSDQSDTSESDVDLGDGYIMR

IC50 pg/ml (anti-proliferation, Daudi cells)	Specific Activity IU/mg x 10^8, Anti-viral (viral cytopathic effect bioassay, A549 cells challenged with virus)	Binder	Specific Activity IU/mg x 10^8, Anti-proliferation (Daudi cells, 72 hours, viable cells)
323 pg/mL	3.7e+08 IU/mg	B1	1.97e+08 IU/mg
318 pg/mL		B2	
251 pg/mL	3.9e+08 IU/mg	B3	
264 pg/mL	4e+08 IU/mg	B4	2.41e+08 IU/mg
	4e+08 IU/mg	B5	
